Laboratory results as given in paper PMC7459424.

Molecular target: T1, recombinant Strep-Flag-IL-17 (SF-IL-17), murine (mouse), Q62386
T1 chain: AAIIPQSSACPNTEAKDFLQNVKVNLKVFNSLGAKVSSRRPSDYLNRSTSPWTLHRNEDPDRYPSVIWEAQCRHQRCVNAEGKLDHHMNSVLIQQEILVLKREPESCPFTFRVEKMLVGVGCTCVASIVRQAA
Test: SDS-PAGE without and with DTT, Coomassie stain; purified SF-IL-17 in SDS sample buffer, untreated or reduced with 50 mM DTT
Conditions: remark: other sources report otherwise

B1: recombinant Strep-Flag-IL-17 (SF-IL-17), murine, Q62386 26-158 (ligand)
chain: AAIIPQSSACPNTEAKDFLQNVKVNLKVFNSLGAKVSSRRPSDYLNRSTSPWTLHRNEDPDRYPSVIWEAQCRHQRCVNAEGKLDHHMNSVLIQQEILVLKREPESCPFTFRVEKMLVGVGCTCVASIVRQAA
- stoichiometry N: 2
